In patent publication US9012217B2, “Benzimidazole compounds differentiate a mammalian stem cell into mesodermal or cardiomyocyte cells” (Burnham Institute for Medical Research, priority 2008, dated 2015):

B1: BMP4 (protein, UniProt P12644 293-408, looked up)
Bone morphogenetic protein 4: SPKHHSQRARKKNKNCRRHSLYVDFSDVGWNDWIVAPPGYQAFYCHGDCPFPLADHLNSTNHAIVQTLVNSVNSSIPKACCVPTELSAISMLYLDEYDKVVLKNYQEMVVEGCGCR
notes: "posteriorizing growth factors such as BMP4"
B2: Activin A (protein, UniProt P08476 311-426, looked up)
Inhibin beta A chain: GLECDGKVNICCKKQFFVSFKDIGWNDWIIAPSGYHANYCEGECPSHIAGTSGSSLSFHSTVINHYRMRGHSPFANLKSCCVPTKLRPMSMLYYDDGQNIIKKDIQNMIVEECGCS
notes: "an inducer of anterior mesoderm and endoderm"

Assays:
[1] = tested on: CGR8 mESCs stably transfected with eGFP under control of the alpha myosin heavy chain (aMHC) promoter; assay: cardiomyocyte screening assay (aMHC-eGFP mESC differentiation, imaging); type: cell-based, mouse; details: structure IIA; activity relative to compound 28 = 100%
Experimental: The primary screen is conducted with CGR8 mESCs stably transfected with eGFP under control of the alpha myosin heavy chain (aMHC) promoter (Takahashi, et al., Circulation, 107(14):1912, 2003). The bioassay is run essentially as described (Bushway et al., Methods Enzymol, 414:300, 2006). Briefly, cells were seeded onto Greiner 384 well microclear bottom microtiter plates in ½ well volume at a density of ˜229 cells/mm2. […]
The optimal time to stop the differentiation is empirically determined to be at day 9 of differentiation, when cardiomyocytes appear in positive control cultures that have higher density cells or culture the cells in embryoid body (not monolayer) culture. […] Image quantification is done using a simple image subtraction routine that subtracted the red channel images from the green (eGFP) channel images to remove background signal from the eGFP images. […]
Follow-up confirmations and testing of hits for SAR were performed on the Hamilton STAR fluid handler with integrated Kendro Cytomat plate hotel and Kendro Cytomat plate incubators using the Hamilton STAR liquid handler robot. […] Image quantification is performed on captured TIFF images using the Developer Toolbox (GE/Amersham) with custom algorithms. […]

mESC = assay: serum-free mESC cardiac differentiation assay (day 2 to day 4 exposure); type: cell-based, mouse; details: added alone, day 2 to day 4, serum free
Experimental: To define the point of action in more detail, a more focused assay is designed to probe the activities of the compounds between days 2-4 of differentiation. Of note is that the original assay is performed in the presence of serum, which activates many pathways that obscure the targets of the small molecules. Since serum activates many pathways and many genes, its presence confounds analysis of downstream targets. Thus, a serum-free mESC cardiac differentiation assay is set up to more precisely validate the activity of the compounds and determine if they acted independently or synergized with a known inducer. The refined assay, diagrammed in FIG. 4, tested the ability of the small molecules to stimulate mesodermal differentiation from day 2 to day 4. Differentiation is initiated by aggregating mESC into embryoid bodies (EBs) in serum free conditions. Day 2 EBs were dispersed in the presence of growth factors or small molecules to allow maximal exposure. Cells were allowed to re-aggregate into EBs until day 4 when they were dispersed and plated in conducive conditions for cardiac differentiation to day 9, at which point eGFP is imaged and quantified by the algorithm described above.
FIG. 5 summarizes experiments showing synergy with Activin/Nodal signaling.

Molecule	Activity [1]	cardiogenesis (cardiomyocytes at day 9) (mESC)
COc1nnc(Nc2ccc3c(c2)ncn3C2CC2)c2ccccc12 [Compound 104]	INACTIVE	
B1		does not
B2		efficient cardiogenesis
